This is an account of results in paper PMC12412652 (Science Advances, 2025).

Settings in all cases: both partners purified
One assay has as its target BCL-2, biotinylated (UniProt P10415 1-239, biotin). As to the kind of experiment: BLI; Octet RED96; biotinylated BCL-2 proteins (25 nM) immobilised on streptavidin biosensors; 10 mM Hepes pH 7.4, 150 mM NaCl, 3 mM EDTA, 0.05% surfactant P20, 0.5% nonfat dry milk; multiple-concentration titrations, 1:1 binding model. In general terms: In BLI a coated tip is dipped into the sample, and binding shifts an interference pattern.

In a further assay the target is BCL-XL, biotinylated (UniProt Q07817-1 1-233, biotin). The assay is described as above.
BCL-XL, biotinylated, sequence (Q07817 whole entry): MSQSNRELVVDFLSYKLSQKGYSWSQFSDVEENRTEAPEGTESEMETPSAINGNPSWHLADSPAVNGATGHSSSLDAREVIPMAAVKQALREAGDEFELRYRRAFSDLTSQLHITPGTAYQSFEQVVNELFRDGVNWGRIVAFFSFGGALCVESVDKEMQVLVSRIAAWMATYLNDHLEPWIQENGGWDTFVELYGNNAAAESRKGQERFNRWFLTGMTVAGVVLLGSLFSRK
Another assay addresses αBAX1. As to the kind of experiment: BLI; Octet RED96; biotinylated BCL-2 family proteins (25 nM) immobilised on streptavidin biosensors, designed protein in solution; 10 mM Hepes pH 7.4, 150 mM NaCl, 3 mM EDTA, 0.05% surfactant P20, 0.5% nonfat dry milk; titrations in triplicate, 1:1 binding model.
The next assay concerns the target T1, αBAK2.
T1 construct: Form used for BLI and, as far as told, for the liposome and cytochrome c assays; source: E. coli, purified
The description is as above.

The target in another assay is T2, αBAK1.
T2 construct: source: E. coli, purified
Described as above.

Assay [1] concerns the target T3, BAK-CDP02 (BAK-targeting computationally designed protein 02 of 11).
T3 construct: Cloned into pET29b; source: E. coli, purified (Ni-NTA, SEC)
The description is as above.

For a further assay, the target named is MBP-BIM-BH3. Described as above.

BCL-2, biotinylated, sequence (P10415 whole entry): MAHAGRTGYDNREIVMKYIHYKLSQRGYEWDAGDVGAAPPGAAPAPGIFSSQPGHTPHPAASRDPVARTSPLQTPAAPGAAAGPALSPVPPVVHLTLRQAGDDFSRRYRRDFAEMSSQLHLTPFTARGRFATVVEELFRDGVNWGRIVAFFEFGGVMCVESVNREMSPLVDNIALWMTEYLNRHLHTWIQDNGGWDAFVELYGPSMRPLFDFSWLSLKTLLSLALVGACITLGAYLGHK

B1: MBP-BidBH3 (domain or fragment, UniProt P55957 1-195, looked up)
chain: MDCEVNNGSSLRDECITNLLVFGFLQSCSDNSFRRELDALGHELPVLAPQWEGYDELQTDGNRSSHSRLGRIEADSESQEDIIRNIARHLAQVGDSMDRSIPPGLVNGLALQLRNTSRSEEDRNRDLATALEQLLQAYPRDMEKEKTMLVLALLLAKKVASHTPSLLRDVFHTTVNFINQNLRTYVRSLARNGMD
notes: BH3 peptide of the BH3-only protein BID, fused to MBP
In general, Kd refers to the free concentration of one partner at which half of the binding sites on the other are occupied at equilibrium, for simple one-to-one binding. High values mean a looser complex, low ones a tighter complex. Consider B1, for which the Kd with BCL-2, biotinylated is 47 ± 5 nM; in the assay with BCL-XL, biotinylated it was 2.3 ± 0.4 nM.

B2: BFL-1 (natural protein)
chain: MTDCEFGYIYRLAQDYLQCVLQIPQPGSGPSKTSRVLQNVAFSVQKEVEKNLKSCLDNVNVVSVDTARTLFNQVMEKEFEDGIINWGRIVTIFAFEGILIKKLLRQQIAPDVDTYKEISYFVAEFIMNNTGEWIRQNGGWENGFVKKFEPKSG
modifications: biotin
Regarding B2, the equilibrium dissociation constant (Kd) in the assay with αBAX1 was 5 nM.

B3: MBP-BAK 16-186, biotinylated (Avi tag, 6-histidine tag) (domain or fragment)
chain: EPALPSASEEQVAQDTEEVFRSYVFYRHQQEQEAEGVAAPADPEMVTLPLQPSSTMGQVGRQLAIIGDDINRRYDSEFQTMLQHLQPTAENAYEYFTKIATSLFESGINWGRVVALLGFGYRLALHVYQHGLTGFLGQVTRFVVDFMLHHCIARWIAQRGGWVAALNLGNGLEGLNDIFEAQKIEWHEGSHHHHHH
modifications: biotin on the Avi tag (enzymatic, BirA)
For the molecule B3, the dissociation constant Kd in the assay with αBAK2 worked out at 0.4 nM; with αBAK1, 7 nM; in assay [1], 60 nM; with MBP-BIM-BH3 it was 4000 ± 2000 nM.
